# Patent US10233255B2, “Antibody therapeutics that bind STAT3” (Sorrento Therapeutics, Inc., priority 2016, dated 2019)
# Entries after “also recorded” stand apart in the source; their conditions may differ.
# B1: ST3G12: fully human anti-STAT3 antibody, heavy/light chain variable domains SEQ ID NO. 3/SEQ ID NO. 4 (antibody, V domains shown)
# VH: QVQLVQSGAEVKKPGASVKVSCKASGYTFTSYYMHWVRQAPGQGLEWMGIINPSGGSTSYAQKFQGRVTMTRDTSTSTVYMELSSLRSEDTAVYYCARSDYVHSFDIWGQGTMVTVSS
# VL: QPVLTQPPSASALLGASIKLTCTLSSEHSTYTVEWYQQRPGRSPQYIMNVKSDGSYNKGDGIPDRFMGSSSGADRYLTFSNLQSDDEAEYHCGESHRIDGQVGVVFGGGTKLTVL
# How the values were obtained:
# [1] = system: MCF-10A cells; assay: Accumulation / internalization of antibody conjugate in MCF-10A cells (fluorescence imaging); assay type: cell-based, human; settings: 30 minutes pretreatment, FIG. 14
# [2] = system: STAT3 phosphorylation; assay: IL-6 stimulated STAT3 phosphorylation ELISA on cell lysates; assay type: cell-based, human; settings: overnight antibody, IL-6 10 or 40 ng/ml for 20 minutes
# Description: Normal breast epithelial cells (MCF-10A) and ER+ breast cancer cells (MCF-7) were treated with naked ST3G12 antibody and conjugated ST3G12-PS antibody (compound 901) (shown as “OS-STAT3” in FIGS. 8A and 8B) to determine the effect on STAT3 phosphorylation. Cells were pre-treated overnight with antibody, and then stimulated with various concentrations of IL-6 for 20 minutes (10 ng/ml or 40 ng/ml). IL-6 is a STAT3 activator. Cells were then lysed and the protein lysates were subjected to ELISA to determine the phosphorylation status. […] “OS-AIP” refers to an oligosaccharide conjugated bacterial AIP protein, used as a control.
# [3] = system: U251 cells; assay: Accumulation / internalization of antibody conjugate in U251 cells (fluorescence imaging); assay type: cell-based, human; settings: 20 ug/mL, 2 hours at 37° C.
# Description: The same experiments were repeated in the U251 glioblastoma cell line, which also has high levels of STAT3 activity, as described in FIG. 7A. U251 cells were treated with 10 ug/ml of ST3G12-PS antibody conjugate compound 901 in increasing proportions of human serum (1%, 5%, 10% and 20%), for 90 minutes at 37° C. Cells were then fixed, permeabilized and stained with anti-human IgG Alexa546. […] MCF-10A, a normal human mammary epithelial cell line with low levels of STAT3 activity (STAT3 low), was described in FIGS. 7A and 7B. This cell line was also tested according to the above protocol. […] The results of another experiment that was performed to determine accumulation of anti-STAT3 antibody conjugate (e.g. compound 901) are shown in FIG. 7C.
# Experiments were carried out to confirm that the ST3G12-PS antibody conjugate (compound 901) was penetrating the cells. Briefly, previously cleaned glass coverslips were coated with collagen for 2 hours at 37° C. 100,000 U251 cells were seeded on the coverslips. Media was removed, and cells were rinsed once with fluorobrite. Next, 20 ug/mL of the specified antibody was added for 2 hours at 37° C. […] In FIG. 10E, red fluorescence indicates the plasma membrane, blue fluorescence indicates the nuclei and green florescence represents the intracellular accumulated ST3G12-PS antibody conjugate compound 901a. […]
# [4] = system: cellular antigens in U251 cells; assay: Cell binding of naked versus PS-conjugated antibody in U251 cells (HTFC); parameters: species or system human; settings: permeabilized U251 cells, FIG. 4
# Description: Cell binding of naked anti-STAT3 ST3G12 antibodies (ST3G12) versus compound 901 (ST3G12-PS) was assessed in U251 cells. Cells were lifted, permeabilized and incubated with increasing amounts of naked anti-STAT antibodies and PS anti-STAT antibody (compound 901) in PBS+/−2% fetal bovine serum (FBS). After 45 minutes at room temperature, cells were washed twice and incubated with phycoerythrin (PE) conjugated-anti-human IgG for 20 minutes at room temperature in the dark. Cells were then washed and analyzed by high throughput flow cytometry (HTFC). The results are shown in FIG. 4 for assessment of antibody binding to U251 cells.
# [5] = system: Human colon cancer HCT116 cells; assay: Penetration of 3D tumor spheroids, HCT116 cells; assay type: cell-based; settings: alexa fluor 488 labeled, FIG. 18C
# Description: Next, experiments were carried out to determine the effect of the STAT3 antibody conjugate on penetration of tumor cells and on tumor cell growth in a three-dimensional (3D) model. 3D in vitro models, such as a tumor spheroid model, have been used in cancer research as an intermediate model between in vitro cancer cell line cultures and in vivo tumor. Human colon cancer HCT116 cells were grown in a 3D tumor spheroid model in a ULA (ultra low attachment) plate, and treated with alexa fluor 488 dye labeled anti-STAT3 monoclonal antibody or alexa fluor labeled anti-STAT3 antibody conjugate (compound 901) for one hour to initiate the uptake. Thereafter, spheres were imaged every 10 min for the next 80 hours with ImageExpress. FIG. 18C are images that show detection of the alexa fluor. […] Next, the effect of the anti-STAT3 antibody conjugate (compound 901) on the growth of 3D tumor spheroids was examined DU145 human prostate cancer cells were seeded in ULA plate. Spheres were allowed to form for 72 hours then treated with the indicated antibodies for additional 5 days. Growth was monitored by ImageXpress HCS confocal microscopy (FIG. 19A). CTG assay was used to determine percent viability in FIG. 19B and percent killing in FIG. 19C. Experiments were done in triplicate wells. Error bars represent one standard deviation.
# [6] = molecular target: GST protein (Schistosoma japonicum, UniProt P08515); assay: Biacore binding to GST protein (specificity control)
# [7] = Pharmacokinetics in athymic nude mice; settings: administered intravenously
# Description: (§3) The pharmacokinetic properties of the anti-STAT3 antibody conjugates were examined in athymic nude mice.
# [8] = molecular target: T1, STAT3 (Homo sapiens, UniProt P40763); assay: Cell binding assay on fixed, permeabilized human cells (PE anti-human IgG, flow cytometry); parameters: endogenous in cells; host or cells: MDA-MB-468 (also given as MDA-MB-435), U251, HeLa
# Description: (§1) Next, the binding of the candidate anti-STAT3 antibodies to cellular targets was tested in cell binding assays using MDA-MB-435 breast cancer cells and U251 cells. The cells were seeded overnight in a 96 well plate, then fixed with PFA and permeabilized with methanol. Cells were incubated with serial dilutions of the anti-STAT3 antibody candidates ST1A5, ST3G12 and ST5G12 for one hour and 30 minutes. Following incubation, the cells were washed and incubated for 30 minutes with phycoerythrin (PE) conjugated anti-human IgG. Fluorescence was measured on an Intellicyte high-throughput flow cytometry analyzer. […] Bevacizumab (Avastin), a monoclonal antibody that inhibits vascular endothelial growth factor A (VEGF-A) was used as a negative control.
# (§2) An isotype control was used as a negative control. The experimental procedure was the same as described above for FIGS. 3A and 3B.
# [9] = molecular target: T2, mouse STAT3 (Mus musculus, UniProt P42227); assay: Cell binding assay on fixed, permeabilized mouse cell lines (flow cytometry); settings: FIG. 3C
# T2 construct: endogenous in cells; host or cells: CT-26, MC-38
# Description: as §1, §2
# [10] = molecular target: T1, STAT3; assay: Biacore T200 affinity measurement, captured antibody vs recombinant human STAT3-GST; assay type: binding
# Description: Biacore T200 was used to measure the affinity of anti-STAT and anti-STAT-phosphorothioate (PS) antibody (compound 901) to human STAT3. Anti-human Fc antibody (GE, BR-1008-39) was immobilized on a CM5 sensor chip to approximately 1000 RU using standard NHS/EDC coupling methodology. Antibodies (approximately 10 ug/ml) were captured for 60 seconds at a flow rate of 10 ul/min Recombinant human STAT3-GST was serially diluted 2-fold into running buffer (HBS-EP+, starting from […]). All measurements were conducted at a flow rate of 30 ul/min Surfaces were regenerated with 3M MgCl2 (from human antibody kit) for 60 seconds. A 1:1 (Langmuir) binding model was used to fit the data. The results are shown in Table 2, below for anti-STAT3 antibody, ST3G12, and the conjugated anti-STAT3 antibody, ST3G12-PS (compound 901).
# [11] = mouse, in vivo, iv
# Description: as §3
# T1 sequence (P40763 whole entry): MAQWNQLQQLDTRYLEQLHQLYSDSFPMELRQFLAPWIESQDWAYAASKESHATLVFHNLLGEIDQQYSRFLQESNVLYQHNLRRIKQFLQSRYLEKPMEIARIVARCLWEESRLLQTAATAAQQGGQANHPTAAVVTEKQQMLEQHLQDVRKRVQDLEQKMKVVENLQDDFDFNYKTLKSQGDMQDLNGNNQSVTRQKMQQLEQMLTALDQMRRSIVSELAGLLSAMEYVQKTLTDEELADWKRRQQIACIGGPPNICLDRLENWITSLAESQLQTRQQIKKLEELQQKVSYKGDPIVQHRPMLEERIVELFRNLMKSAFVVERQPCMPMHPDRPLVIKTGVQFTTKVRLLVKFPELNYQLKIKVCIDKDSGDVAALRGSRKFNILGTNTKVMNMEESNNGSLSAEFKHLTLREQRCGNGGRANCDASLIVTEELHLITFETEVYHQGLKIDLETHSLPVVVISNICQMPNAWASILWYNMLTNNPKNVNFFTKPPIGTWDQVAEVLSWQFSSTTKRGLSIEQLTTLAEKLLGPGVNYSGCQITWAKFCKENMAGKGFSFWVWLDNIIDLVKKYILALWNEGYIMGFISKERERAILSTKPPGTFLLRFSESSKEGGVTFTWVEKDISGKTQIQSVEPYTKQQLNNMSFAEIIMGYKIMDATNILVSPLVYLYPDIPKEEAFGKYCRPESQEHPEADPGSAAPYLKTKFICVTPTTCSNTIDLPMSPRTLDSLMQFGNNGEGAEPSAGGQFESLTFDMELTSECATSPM
# T2 sequence (P42227 whole entry): as the sequence (P40763 whole entry) above, with E760D counted along it
# Chain of GST protein (P08515 whole entry): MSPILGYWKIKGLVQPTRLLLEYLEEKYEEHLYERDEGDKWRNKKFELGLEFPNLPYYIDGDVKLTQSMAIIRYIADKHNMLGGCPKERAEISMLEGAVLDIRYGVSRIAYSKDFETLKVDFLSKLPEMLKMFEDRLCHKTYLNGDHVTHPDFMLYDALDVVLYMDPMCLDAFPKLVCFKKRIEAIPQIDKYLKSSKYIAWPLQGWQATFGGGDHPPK
molecule,measurement,setting,value
"O=C1NC(=NS(=O)(=O)c2cccc3ccccc23)S/C1=C\c1ccc(Br)cc1 [PS2, Pitstop2]",effect of clathrin inhibitor on ST3G12-PS uptake,[1]; 30 uM and 60 uM,inhibited
CCCCC[C@@H](O)[C@H]1C(=O)O[C@H](C)[C@@H](O)/C=C/C=C/C=C/C=C/C=C(\C)[C@@H](O)C[C@H](O)C[C@H](O)C[C@H](O)C[C@H](O)C[C@H](O)C[C@@H]1O [filipin],effect of caveolin inhibitor on ST3G12-PS uptake,[1]; 0.5 ug/ml,little effect
same,effect of caveolin inhibitor on ST3G12-PS uptake,[1]; 1.0 ug/ml,greater effect
B1,effect on STAT3 phosphorylation in MCF-10A cells,[2]; FIG. 8A,little to no effect
same,effect on STAT3 phosphorylation in MCF-7 cells,[2]; FIG. 8B,little to no effect
same,cell penetration / internalization by microscopy,[3],no internalization
same,"antibody binding to U251 cells, naked versus conjugated",[4],considerably lower
same,penetration of tumor spheroids,[5],did not
same,binding to GST protein,[6],No binding
same,CI,[7],18.7 mL/day/kg
same,T ½,[7],76.5 h
same,binding to HeLa cell line,"[8]; HeLa cells, FIG. 3C",strong binding
same,STAT3 binding in MDA-MB-468 cells,"[8]; MDA-MB-468 cells, FIG. 3A",bound STAT3
same,STAT3 binding in U251 cells,"[8]; U251 cells, FIG. 3B / 3C",bound STAT3; also recorded: strong binding
same,binding to CT-26 mouse cell line,[9]; CT-26 cells,able to recognize mouse STAT3
same,binding to MC-38 mouse cell line,[9]; MC-38 cells,able to recognize mouse STAT3
same,Rmax,[10],174
same,Ka,[10]; 1:1 (Langmuir) binding model,59700 M⁻¹ s⁻¹
same,Kd,[10]; 1:1 (Langmuir) binding model,0.000322 s⁻¹
same,AUC (0-336 hr),[11],254.6 µg·days/mL
same,Cmax,[11],79.7 µg/mL
same,Vs s,[11],0.0833 L/kg
